First the molecules themselves.
B1: Rad26 (wild type) (enzyme, S. cerevisiae)
chain: MEDKEQQDNAKLENNESLKDLGVNVLSQSSLEEKIANDVTNFSNLQSLQQEETRLERSKTALQRYVNKKNHLTRKLNNTTRISVKQNLRDQIKNLQSDDIERVLKDIDDIQSRIKELKEQVDQGAENKGSKEGLQRPGETEKEFLIRTGKITAFGHKAGFSLDTANREYAKNDEQKDEDFEMATEQMVENLTDEDDNLSDQDYQMSGKESEDDEEEENDDKILKELEDLRFRGQPGEAKDDGDELYYQERLKKWVKQRSCGSQRSSDLPEWRRPHPNIPDAKLNSQFKIPGEIYSLLFNYQKTCVQWLYELYQQNCGGIIGDEMGLGKTIQVIAFIAALHHSGLLTGPVLIVCPATVMKQWCNEFQHWWPPLRTVILHSMGSGMASDQKFKMDENDLENLIMNSKPSDFSYEDWKNSTRTKKALESSYHLDKLIDKVVTDGHILITTYVGLRIHSDKLLKVKWQYAVLDEGHKIRNPDSEISLTCKKLKTHNRIILSGTPIQNNLTELWSLFDFIFPGKLGTLPVFQQQFVIPINIGGYANATNIQVQTGYKCAVALRDLISPYLLRRVKADVAKDLPQKKEMVLFCKLTKYQRSKYLEFLHSSDLNQIQNGKRNVLFGIDILRKICNHPDLLDRDTKRHNPDYGDPKRSGKMQVVKQLLLLWHKQGYKALLFTQSRQMLDILEEFISTKDPDLSHLNYLRMDGTTNIKGRQSLVDRFNNESFDVFLLTTRVGGLGVNLTGANRIIIFDPDWNPSTDMQARERAWRIGQKREVSIYRLMVGGSIEEKIYHRQIFKQFLTNRILTDPKQKRFFKIHELHDLFSLGGENGYSTEELNEEVQKHTENLKNSKSEESDDFEQLVNLSGVSKLESFYNGKEKKENSKTEDDRLIEGLLGGESNLETVMSHDSVVNSHAGSSSSNIITKEASRVAIEAVNALRKSRKKITKQYEIGTPTWTGRFGKAGKIRKRDPLKNKLTGSAAILGNITKSQKEASKEARQENYDDGITFARSKEINSNTKTLENIRAYLQKQNNFFSSSVSILNSIGVSLSDKEDVIKVRALLKTIAQFDKERKGWVLDEEFRNNNAS
notes: Rad26, S. cerevisiae ortholog of human CSB, Swi2/Snf2 family ATPase; also called Rad26(WT); yeast ortholog of CSB; source: E. coli Rosetta 2(DE3), purified (Ni-NTA agarose, Hi-Trap Heparin HP, Superdex 200)
B2: Rpb4/7 heterodimer of S. cerevisiae RNA polymerase II (complex)
chain 1: MNVSTSTFQTRRRRLKKVEEEENAATLQLGQEFQLKQINHQGEEEELIALNLSEARLVIKEALVERRRAFKRSQKKHKKKHLKHENANDETTAVEDEDDDLDEDDVNADDDDFMHSETREKELESIDVLLEQTTGGNNKDLKNTMQYLTNFSRFRDQETVGAVIQLLKSTGLHPFEVAQLGSLACDTADEAKTLIPSLNNKISDDELERILKELSNLETLY
chain 2: MFFIKDLSLNITLHPSFFGPRMKQYLKTKLLEEVEGSCTGKFGYILCVLDYDNIDIQRGRILPTDGSAEFNVKYRAVVFKPFKGEVVDGTVVSCSQHGFEVQVGPMKVFVTKHLMPQDLTFNAGSNPPSYQSSEDVITIKSRIRVKIEGCISQVSSIHAIGSIKEDYLGAI
notes: Rpb4 subunit of S. cerevisiae RNA polymerase II; Rpb7 subunit of S. cerevisiae RNA polymerase II; In the structures it stood assembled into 12-subunit Pol II; also called Pol II stalk

The target of assay [1] is S. cerevisiae 12-subunit RNA polymerase II (S. cerevisiae) (UniProt P04050). The experiment in a line: mass photometry; 12-subunit CPD-arrested Pol II complex (EC, on DNA/RNA scaffold) mixed with an equimolar amount of Rad26, diluted to 2, 5, 15 and 20 nM, with additional Elf1 (final 500 nM), incubated 20 min; Kd from particle counts, 12 reads.
The target is the same in assay [2]. The experiment in a line: mass photometry; 12-subunit CPD-arrested Pol II complex (EC, on DNA/RNA scaffold) mixed with an equimolar amount of Rad26, diluted to 5, 10, 15 and 25 nM, incubated 20 min; no Elf1; Kd from particle counts, 12 reads.
For assay [3], the target named is T1, Rpb1 subunit of S. cerevisiae RNA polymerase II (S. cerevisiae, UniProt P04050 1-1733).
T1 construct: Rpb1, largest subunit of S. cerevisiae RNA polymerase II, within the assembled polymerase; Seen only as a subunit of Pol II in the structures
T1 sequence (P04050 whole entry): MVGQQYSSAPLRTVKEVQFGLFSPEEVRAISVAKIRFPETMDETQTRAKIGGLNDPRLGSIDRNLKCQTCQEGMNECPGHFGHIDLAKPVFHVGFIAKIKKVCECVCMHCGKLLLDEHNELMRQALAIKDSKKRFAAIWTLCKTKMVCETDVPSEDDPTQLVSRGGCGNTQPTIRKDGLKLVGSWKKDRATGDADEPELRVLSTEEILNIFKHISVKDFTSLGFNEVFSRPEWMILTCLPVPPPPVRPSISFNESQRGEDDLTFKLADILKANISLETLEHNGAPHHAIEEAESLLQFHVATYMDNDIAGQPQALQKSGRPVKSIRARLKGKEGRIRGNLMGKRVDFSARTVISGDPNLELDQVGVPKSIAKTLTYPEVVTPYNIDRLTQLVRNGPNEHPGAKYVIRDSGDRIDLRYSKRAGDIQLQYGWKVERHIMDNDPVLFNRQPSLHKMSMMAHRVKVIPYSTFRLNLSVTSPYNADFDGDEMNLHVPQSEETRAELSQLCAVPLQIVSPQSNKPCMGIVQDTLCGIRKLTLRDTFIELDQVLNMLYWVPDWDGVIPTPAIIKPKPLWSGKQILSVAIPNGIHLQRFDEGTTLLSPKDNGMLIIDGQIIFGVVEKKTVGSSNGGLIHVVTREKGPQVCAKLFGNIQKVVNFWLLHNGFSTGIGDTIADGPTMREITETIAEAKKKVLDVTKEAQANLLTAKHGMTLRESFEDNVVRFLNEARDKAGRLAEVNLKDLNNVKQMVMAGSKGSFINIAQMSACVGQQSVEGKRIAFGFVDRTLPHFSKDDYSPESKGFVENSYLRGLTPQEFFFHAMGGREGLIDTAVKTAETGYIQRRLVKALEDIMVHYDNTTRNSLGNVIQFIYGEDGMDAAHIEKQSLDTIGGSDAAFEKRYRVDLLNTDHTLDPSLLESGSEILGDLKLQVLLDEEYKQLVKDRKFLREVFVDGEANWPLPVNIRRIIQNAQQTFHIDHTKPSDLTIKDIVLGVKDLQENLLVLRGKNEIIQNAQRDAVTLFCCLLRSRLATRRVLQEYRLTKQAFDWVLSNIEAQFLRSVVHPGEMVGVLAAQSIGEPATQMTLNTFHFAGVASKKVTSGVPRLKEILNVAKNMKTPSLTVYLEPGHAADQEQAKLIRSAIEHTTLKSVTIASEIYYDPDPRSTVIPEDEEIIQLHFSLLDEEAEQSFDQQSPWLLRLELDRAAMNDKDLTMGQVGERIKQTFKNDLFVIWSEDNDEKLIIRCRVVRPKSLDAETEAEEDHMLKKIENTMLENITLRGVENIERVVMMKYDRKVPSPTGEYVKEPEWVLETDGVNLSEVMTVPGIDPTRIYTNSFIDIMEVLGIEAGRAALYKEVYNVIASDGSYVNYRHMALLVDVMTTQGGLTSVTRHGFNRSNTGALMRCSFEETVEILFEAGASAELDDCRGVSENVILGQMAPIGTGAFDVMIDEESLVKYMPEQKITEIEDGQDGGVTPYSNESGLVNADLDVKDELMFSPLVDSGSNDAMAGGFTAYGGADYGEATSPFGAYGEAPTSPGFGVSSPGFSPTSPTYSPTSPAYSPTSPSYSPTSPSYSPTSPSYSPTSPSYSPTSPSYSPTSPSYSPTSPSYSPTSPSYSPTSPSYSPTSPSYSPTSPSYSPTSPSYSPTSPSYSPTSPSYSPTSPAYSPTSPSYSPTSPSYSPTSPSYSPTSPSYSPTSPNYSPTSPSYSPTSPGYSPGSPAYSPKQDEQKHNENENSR
The experiment in a line: cryo-EM structure; Pol II(CPD)-Rad26 with 10-subunit Pol II lacking Rpb4/7, CPD lesion scaffold; 4.7 A. Particulars: both partners purified.

In assay [4] the target is T2, Rpb2 subunit of S. cerevisiae RNA polymerase II (S. cerevisiae, UniProt P08518 1-1224).
T2 construct: Rpb2, second largest subunit of S. cerevisiae RNA polymerase II, within the assembled polymerase; Seen only as a subunit of Pol II in the structures
T2 sequence (P08518 whole entry): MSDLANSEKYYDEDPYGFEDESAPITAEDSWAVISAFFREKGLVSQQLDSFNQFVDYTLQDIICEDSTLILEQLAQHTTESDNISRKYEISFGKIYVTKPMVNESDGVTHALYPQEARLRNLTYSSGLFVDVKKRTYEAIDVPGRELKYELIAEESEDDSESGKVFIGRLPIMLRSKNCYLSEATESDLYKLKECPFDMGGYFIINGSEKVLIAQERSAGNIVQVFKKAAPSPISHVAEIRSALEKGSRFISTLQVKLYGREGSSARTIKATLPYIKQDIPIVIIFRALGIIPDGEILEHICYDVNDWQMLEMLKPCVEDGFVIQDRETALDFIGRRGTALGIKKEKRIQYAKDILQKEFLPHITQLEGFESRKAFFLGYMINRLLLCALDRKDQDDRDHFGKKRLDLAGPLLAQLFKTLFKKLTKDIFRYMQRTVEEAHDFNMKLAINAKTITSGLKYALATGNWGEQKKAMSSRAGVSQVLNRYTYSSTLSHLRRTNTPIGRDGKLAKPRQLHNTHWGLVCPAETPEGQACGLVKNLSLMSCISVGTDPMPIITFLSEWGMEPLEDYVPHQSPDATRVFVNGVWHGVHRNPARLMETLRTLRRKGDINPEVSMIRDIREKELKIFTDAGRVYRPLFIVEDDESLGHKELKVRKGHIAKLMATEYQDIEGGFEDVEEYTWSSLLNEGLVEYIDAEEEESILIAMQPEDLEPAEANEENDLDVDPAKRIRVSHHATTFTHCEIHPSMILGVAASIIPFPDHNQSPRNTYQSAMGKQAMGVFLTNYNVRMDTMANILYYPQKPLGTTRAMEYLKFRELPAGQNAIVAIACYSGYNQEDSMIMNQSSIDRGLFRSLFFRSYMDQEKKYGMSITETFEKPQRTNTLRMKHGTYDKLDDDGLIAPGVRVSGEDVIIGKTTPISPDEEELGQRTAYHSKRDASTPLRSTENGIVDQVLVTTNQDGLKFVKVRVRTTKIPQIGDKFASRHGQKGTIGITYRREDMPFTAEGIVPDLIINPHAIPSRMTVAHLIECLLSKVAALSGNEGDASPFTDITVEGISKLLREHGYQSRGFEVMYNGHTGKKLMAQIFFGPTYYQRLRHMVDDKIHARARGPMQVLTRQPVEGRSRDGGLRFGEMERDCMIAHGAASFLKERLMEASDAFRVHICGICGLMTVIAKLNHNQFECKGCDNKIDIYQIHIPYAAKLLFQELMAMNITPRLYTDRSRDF
Described as above. Particulars: both partners purified.

The target of assay [5] is B1. As to the kind of experiment: cryo-EM structure; Pol II(CPD)-Rad26-Elf1 (Closed state): Elf1 incubated with the Pol II(CPD)-Rad26 complex; 1 uM Pol II, 2 uM Rad26, 1.1 uM scaffold, 5 uM Elf1; 3.1 A. Particulars: both partners purified.

In general, Kd refers to the equilibrium constant for the complex coming apart.

For B1, the Kd in assay [1] was found to be 9 nM; in assay [2], 23 nM. Also, the binding result in assay [3] and in assay [4] was “binds” in each case.

Consider B2, for which, in assay [5], the binding result was “binds”.

For the origin of these results see PMC10801861, “Elf1 promotes Rad26’s interaction with lesion-arrested Pol II for transcription-coupled repair” (Proceedings of the National Academy of Sciences of the …, 2024).
